Measured values: patent US20240101959A1, “USE OF IL-2R-BETA-GAMMA AGONIST PEPTIDES IN CELL MANUFACTURING” (MEDIKINE, INC., priority 2022, published 2024)
Positions of bridges follow the written chain, without caps; N, C: chain ends. No end group written: not given here.

molecular target: T1, hu-IL-2Rβ subunit (human, UniProt P14784 27-240, limits assumed); assay: phage ELISA competition assay
T1 construct: also called human interleukin-2 receptor subunit β; CD122
T1 sequence (looked up): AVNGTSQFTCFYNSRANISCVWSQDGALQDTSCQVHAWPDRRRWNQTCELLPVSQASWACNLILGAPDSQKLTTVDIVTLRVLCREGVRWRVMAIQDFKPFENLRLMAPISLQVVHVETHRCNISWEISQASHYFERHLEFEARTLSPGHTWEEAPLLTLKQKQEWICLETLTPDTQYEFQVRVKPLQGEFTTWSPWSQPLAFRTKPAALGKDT

IC50, < 100 µM:
WNPCWIAQLGDLCDMV [SEQ ID NO 194], RLPCWRAQLGDLCELDWGLDMG [SEQ ID NO 217], WLPCWMAQLGELCVME [SEQ ID NO 187], GQVVETSLPCWEAQLGELCVLD [SEQ ID NO 202], WKPCWMAGLGELCELD [SEQ ID NO 190], WKPCWLAQLGDLCEME [SEQ ID NO 185], WRPCWRAYLGELCDLEAMPRAT [SEQ ID NO 90], FKPCWIANLGELCDMDDERSSE (disulfide 4-13 (inferred)) [SEQ ID NO 212], YKPCQMAQLGELCDLDVDNKAE [SEQ ID NO 211], IRSCSPCWSADVGELCDLECEW [SEQ ID NO 91], WLSPPSYLPCWMAQLGELCDLV [SEQ ID NO 196], FYPCWKARLGELCELEELRGYY [SEQ ID NO 215], WQPCWRAKLGELCDLE [SEQ ID NO 192], SWPCWMAQLGDLCDLDGSAGAS [SEQ ID NO 220], WLPCWLAHLGDICDLQ [SEQ ID NO 195], IPKGESWFPCWMAAMGELCDLE (disulfide 10-19 (inferred)) [SEQ ID NO 208], SLPCWIARLGELCDLDGYDGEE [SEQ ID NO 214], WSPCWIATLGELCDLD [SEQ ID NO 193], WFPCWMAQLGQLCDLE [SEQ ID NO 89], WWPCSSAELGEICDFD [SEQ ID NO 191], EQGMLGYFPCWKALLGDVCDLD [SEQ ID NO 200], WKPCWMARLGELCDIEDTKVNA [SEQ ID NO 213], WYPCWMAHLGDVCDLESFGQTE [SEQ ID NO 210], IDRADGWKPCWIAQVGELCVLE [SEQ ID NO 205], YKPCWIAQLGELCELE [SEQ ID NO 183], WLPCWMAKLGDLCELE [SEQ ID NO 186], WDVHAIRNPCWLAKLGDLCDLD [SEQ ID NO 197], GYPCWLAQLGDYCDLDAGAPSW [SEQ ID NO 219], SKPCWMAQLGELCDLDVWNLQM [SEQ ID NO 218], ALVGGTFYPCYVAHLGELCDIE (disulfide 10-19 (inferred)) [SEQ ID NO 204], QPCWLAQVGDLCDLLWPGPL [SEQ ID NO 79], VMSPTRWLPCWIAKLGELCDLE [SEQ ID NO 88], WYPCWIAQLGEVCDLEKQTGSV [SEQ ID NO 209], SGHWYPCWMARLGELCDMEERA [SEQ ID NO 92], WRVTASLQPCWMAQLGELCDLN [SEQ ID NO 201], LHPCWMAQLGELCDLE (disulfide 4-13 (inferred)) [SEQ ID NO 188], DTGRDGWKPCWMALLGELCELE [SEQ ID NO 199], WKPCWLAQLGELCDLERPSTTS [SEQ ID NO 221], GAGVLHRWPCWMAKLGDLCDLD [SEQ ID NO 198], TVGQFEWYPCSTAQLGELCDLD [SEQ ID NO 203], SNPCWMAQLWELCDLE [SEQ ID NO 182], WQPCWMAQLGELCDLE [SEQ ID NO 184], WKPCWIADLGELCDLAPAWHEY [SEQ ID NO 216], SLPCWMAQLGELCDLV [SEQ ID NO 189], AVSHGNWLPCYIAQLGELCDLD [SEQ ID NO 207], YRRERVEFPCWLAQLGELCDKE [SEQ ID NO 206]
